This is an account of results in the DeepSol protein solubility set.

The series is described as follows: soluble on expression in E. coli; label from the status in PepcDB or PDB records.
In the case of “MGSDKIHHHHHHMIRDNIMSQIDLPTDFDFQQAGRQVLEIEREGLAQLDQYINEDFTHACETIFRCGGKVVVMGMGKSGHIGRKMAATFASTGTSAFFVHPGEAAHGDLGMVTPQDVVIALSNSGESNEILALIPVLKRQQVKLICITSRPESSMARAADIHLCVKVPKEACPLGLAPTSSTTAALVMGDALAVALLEARGFTAEDFALSHPGGALGRKLLLRVNDIMHTGDEIPHVGLQATLRDALLEITRKNLGMTAICDDDMNIIGIFTDGDLRRVFDTGVDMRDASIADVMTRGGIRIRPGTLAVDALNLMQSRHITCVLVADGDHLLGVVHMHDLLRAGVV”, the “soluble on expression in E. coli” value is reported as “not soluble”.

Take “MAQPKFVVAEIVEMEDHPDSDHLHICKVNVGFADPVQIVCGAPNAALGLKTVAALPGAMMPNGSLIFPGALRGVQSYGMLCSARELELPNAPEVRGIIELSSDLSAGKAFDSETMLEHHHHHH”: the “soluble on expression in E. coli” value is on record as “not soluble”. For the sequence “MKPKTLSPILTAKGVRLAIAVGRFNERVTKLLLEGALEAYARLGGDPAEVLVAWVPGSFELPLVAKRLAQRPDVDAVVALGAVIRGETPHFEYVAGQAASGLMQAMLQTEKPIVFGVLTTNTPEEAQERAGGKAGNKGAEAVFTAIEMVRLLEAISR”, the “soluble on expression in E. coli” value is given as “soluble”.

In the case of “MKSIYITGYMGAGKTTIGKALSKELHMDVVDTDQKIEEKQGKVIRDIFAEEGEMAFREYESEMLCSLPVDNVIITTGGGIVEREENRKWMKENGTVVYLYCDPHVIAERLREDTTRPLFQKKDIDAFVTKFESRRAYYEEAHIHIDTTNKSVKQIMNELKEKINE”, the “soluble on expression in E. coli” value is listed as “not soluble”. “MKPTAIFLMGPTASGKTDLAIQLRSQLPVEVISVDSALIYKGMDIGTAKPSKEELALAPHRLIDILDPSESYSAMNFRDDALREMADITAQGKIPLLVGGTMLYYKALIEGLSPLPSADENIRAELEQKAAQQGWAALHTELAKIDPISAARINPSDSQRINRALEVFYITGKSLTELTEEKGEALPYDFVQFAIAPQDRHVLHERIEQRFHKMIELGFQAEVEKLYARGDLNINLPSIRCVGYRQMWEYLQGDYAYEEMIFRGICATRQLAKRQLTWLRGWKTPIQWLDSLQPQQAKETVLRHLDSYQKGLEHHHHHH”: the “soluble on expression in E. coli” value is reported as “soluble”. In the case of “SMSSHDGLMVFTGNANPALAQEVVKILGIPLGKAMVSRFSDGEIQVEIQENVRGKDVFVLQSTCAPTNDNLMELMIMVDALKRASAGRITAAIPYFGYARQDRRPRSARVAISAKVVANMLEIAGVERIITMDLHADQIQGFFDIPVDNIYATPILLGDLRKQNYPDLLVVSPDVGGVVRARALAKQLNCDLAIIDKRRPKANVAEVMNIIGEVEGRTCVIMDDMVDTAGTLCKAAQVLKERGAKQVFAYATHPVLSGGAADRIAASALDELVVTDTIPLSAESLACPKIRALSSAGLLAETFSRIRRGDSVMSLFAES” it was “soluble”; in that of “PLGSEEEEEDAGLVAEAEAVAAGWMLDFLCLSLCRAFRDGRSEDFRRTRNSAEAIIHGLSSLTACQLRTIYICQFLTRIAAGKTLDAQFENDERITPLESALMIWGSIEKEHDKLHEEIQNLIKIQAIAVCMENGNFKEAEEVFERIFGDPNSHMPFKSKLLMIISQKDTFHSFFQHFSYNHMMEKIKSYVNYVLSEKSSTFLMKAAAKVVESKR”, “soluble”. With “VAYLTEVVVNEVVEAHEVPEVQHALNINSSESLIHIVRTRRLNQHVKIVDEDYFLKSIVSDIGNDVASDSIYDYLEKVLNLNISYSSKSITFEPFDEQAYQLFGDVSVAYSATVRSIVYLENTMPFQYNISKHLA” the entry was “not soluble”; with “MGSDKIHHHHHHAQKKDFSYKFYGQIRTDLYYNSRANEETVDGLFYMYPKDEVFDSNGRDLNATANGSFYTLYTRLGLDVKGPKLGRAMTSAKVEADFRGSGTSYSTIRLRHAYLNLDWGRSALLLGQTWHPLFGDVSPQILNLSVGAPFQPFSRAPQIRYRYTHKGFQLTGAAIWQSQYLSQGIVGKSQTYIKNSCVPEFYLGLDYKANGWIAGAGIELLSLKPRTESKVEDQVYKVNERITTLSYEGHVKYSNKDWFVGAKTVLGSNLTQTSMLGGFGIKSIDNRTGEQKYTPIRVSSSWLNVVYGQKWKPGIFLGYVKNMGTSDALASNQVYGTGTNVDQVVTAGAELTYNVNHWKFGVEYTYTSAAYGSLYLKNGKIIDTHSVGNNRIVGVAMFMF”, “not soluble”.

Take “MTATAQQLEYLKNSIKSIQDYPKPGILFRDVTSLLEDPKAYALSIDLLVERYKNAGITKVVGTEARGFLFGAPVALGLGVGFVPVRKPGKLPRETISETYDLEYGTDQLEIHVDAIKPGDKVLVVDDLLATGGTIEATVKLIRRLGGEVADAAFIINLFDLGGEQRLEKQGITSYSLVPFPGH”: the “soluble on expression in E. coli” value was “soluble”. In the case of “MIIKPAGDSAFLISFGDEISEEINDRVHSLAKAIEKESPEWLVELVPAYSSLLVIYDPLKASYEEVESYLKRISAREVERIKGKTIEIPVAYGGEFGPDIEFVAQYNGLSVDDVIEIHSKPLYRVYFLGFLPGFAYLGGMDERIATPRLEKPRLKVPAGSVGIAGKQTGWYAIESPGGWRIIGRIPLRTFNPGKVPPSIVLPGDYVKFVPIDEKEFWEIYGREWE” it was “soluble”; in that of “MAQVAIITASDSGIGKECALLLAQQGFDIGITWHSDEEGAKDTAREVVSHGVRAEIVQLDLGNLPEGALALEKLIQRLGRIDVLVNNAGAMTKAPFLDMAFDEWRKIFTVDVDGAFLCSQIAARQMVKQGQGGRIINITSVHEHTPLPDASAYTAAKHALGGLTKAMALELVRHKILVNAVAPGAIATPMNGMDDSDVKPDAEPSIPLRRFGATHEIASLVVWLCSEGANYTTGQSLIVDGGFMLANPQFNPE”, “soluble”.

As to “MTTVLYYLPASPPCRSVLLLAKMIGVELDLKVLNIMEGEQLKPDFVELNPQHCIPTMDDHGLVLWESRVILSYLVSAYGKDENLYPKDFRSRAIVDQRLHFDLGTLYQRVVDYYFPTIHLGAHLDQTKKAKLAEALGWFEAMLKQYQWSAANHFTIADIALCVTVSQIEAFQFDLHPYPRVRAWLLKCKDELEGHGYKEINETGAETLAGLFRSKLKQ”, the “soluble on expression in E. coli” value is given as “soluble”. In the case of “LMGDDKVKKEVGRASWKYFHTLLARFPDEPTPEEREKLHTFIGLYAELYPCGECSYHFVKLIEKYPVQTSSRTAAAMWGCHIHNKVNEYLKKDIYDCATILEDYDCGCSDSDGKRVS” it was “soluble”; in that of “MGSDKIHHHHHHMYKHSIIPKPVSEYDLRLLRIFISVVEHGGFSSAANALGITRSTISVHMSNLETRMKLKLCLRGRGGFSLTEDGQAVYQAVLDLFATMDDFSLLIDSLGSELSGELIILCADQLDESKQHKMAQVIKKINDASPNLHLVLDGDSISNIEKALLKDKAHIALFPSYQQIEGLQYQPLFSESIYLCCGKQHPFFNQVDTAISEEILGQAAAIHPGINIDLAGKQQLEKLNLSAKSYQFDTRKAMILSGCYIGFMQQSFIQAELNRGEIRIIKPNSHHYQFRLSLVSKKTPREVKKVELLTNVFSQVFEL”, “not soluble”. “MERVTRKVQVTGGSTYIISLPPEWIKRNNIGKGSEVSVIDQGSDLVVTAPENSEPEITKKITLPGSYTGKPLQRLLTSTYISGFDTLVVVSKDKMTAEMRDDIKRFAKVVMGIEVIEETSRSIVLQNVLNASTFPLQKAIRRMSLNVSTMIEDTIKAIQDEDDDLVENIILRDDEVDRYQWYIYREVKIRCRDDRSNVYILVLSRILERIADHAVNICQAIKNRKGIKGKEKMVENLAYSKDVYNQAMETFYSKNFGEIDGIINRKSEITSRKYELLKILSYDSVLSSVAEEISRIGLYGTDIAELAMDLIMSDKDEFSV”: the “soluble on expression in E. coli” value is listed as “not soluble”. On to “MRVENSNGQSQPAATSKTVKDNAEIYYDNDDSDRFYFHVWGGEDIHVGLYKEPVDQDEIREASLRTDEWLASELAMTGVLQRQAKGLDLGAGYGGAARFLVRKFGVSIDCLNIAPVQNKRNEEYNSQAGLADNITVKYGSFLEIPCEDNSYDFIWSQDAFLHSPDKLKVFQECARVLKPGGVMAITDPMKEDGIDKSSIQPILDRIKLHDMGSLGLYRSLAKECGLVTLRTFSRPDSLVHHYSKVKAELIKRSSEIASFCSPEFQANMKRGLEHWIEGGRAGKLTWGGMLFRKSDKI”, for which the “soluble on expression in E. coli” value is “soluble”.

In the case of “TQDWNWNIGYNISYNKNKITKMTFNDDPNYAGVIHGGIDGGTGYNALIHRVGEAFNSFYVFEQIYGPDGKPIEGAYVDQNGDNQINDADLICFKKAAPDVFMGLTSQLSYKNWDFSFALRGSFGNYVYNNVQSNREAYEGANMYDQTGFLKNRLTSARSTDFKNAQYRSSYYVQNASFVRMDNISLGYTFNKLFNDKQSARVYATVQNPFVITKYKGLDPEISGEGIDNNIYPRPRVFMIGLNLNF”, the “soluble on expression in E. coli” value is on record as “not soluble”. Turning to “MSLDTYTTSEVADLIGVHPNTVRLYEELNLIPKPKRNTNGYRIFNDFHIEQFRFARTALKIEVVQRGLRKDALEIVRTSANRDFDKAISLVNQYLQQLEIEKSNAEEALTIVAQILNGNTPETNKLFLTRKETAEHLNVTIDTLRNWEMNGLLKVKRKQNGYRVYTDEDIKRLKIISALRCANYSLSAILRMLNALSSNPNTNIKTVLDTPKDDDEIISVCDKLITSLKEAEHNAKTMKSHLQIMKKQFSEGHHHHHH”, the “soluble on expression in E. coli” value was “soluble”. With “GPGSMLRRCAPLLIGVEGDTFVSAIKDKQYLAHRLAILGKEDPNFKAQCMSDDDIKRFTTSLGSAESLFNKQAGAIPTNVVDEETGRVIGSTQPDPTRYGDWEVNGRCYDF” the entry was “soluble”; with “MGSDKIHHHHHHMKNLEQRKSWYAEVAINYTSQQRKNWYNDVADAYNRTRPRYPQQLVSRVVELAQLPQNAAILEVGCGPGTATTAFAQLGFSMVCLEPSQNSSQLAQQNCSPYPNVEIINTSFEEWPLEPGKFDAVLAATSFHWVSPEIGYSKAADALKDHCSLILLWNMTPQPEYEVYQRLHEVYQAQAPTLERYEEQEAQEKHLRRFGKAVIDSGRFQDLVSEQLRCDVTYSIDDYLTLLSTLSPYIALDSQQRNSLFTSLRETLEKHCGSSVEISYLSAFHVAKKI”, “not soluble”. With “GPGSMRISERAFMDIAIGTKAPRRIVFKLFPRKCPSAVKNFIELCSGNVSTDTYESGNRDKLISESALPQLTYKNSTFHRVEKGYLIQGGDIVTGRGTEQLSIYGGTFSAPEEVRASVFDKPGLVGTASSSPNAHGSQFFILTAKEANHLNGTCICFGQVADGLDVVQEIEQVPIDPSGFPSLKVSIVDCGVLE” the entry was “soluble”. With “GKNLNWDFDANISFNRNKISGLPGDQFAQGWSKADNVFLQRNGMPIGTIYGFVEDGFYDNIAEVRADPFYAKESEAVCKAMVGEVKYKDFDGVAGITNADRQVIGDTNPDFTFGMTHNFTYKNFSLSFFLQGCVGGDIFNANLLEVTMSGIGNIPQNIYESRWTPENRENAKWPKAYAGYGRTMKLSDRYVEDGSYLRMKNINLGYKFISPFKGIESINLFASVSNVFTISGYSWYDPDVNSFGSDASRRGVDLFSYPSSRTFSFGLQCTF” the entry was “not soluble”; with “MAFELSPSDLEPLLQGACFFGSGGGGTMISARHLAANFRKGDYYPTDKVRVVDVDEATDGDCVMVAYMGAPDAINQVQWPNGPVEAALAARQRLESQGRKLAYVVAPESGALGFVVASLVAAKLGLAVVDADGAGRAVPSLPMLTYAAAGVPPTPAFLAGESGLCVELGVRMPPPDGQRREDISTVVEQMLRPILTNPQFGQFGGLAMWMMSPAQLGGALPVRGTLSRALKLGRALQDGKVKTAEAMLDFLRRELDIKGKLLFGPATLASSEVSTAGGFDLGKVVLEDGERRCTVLYQNESLLAWDSALSHPLATAPDAISYFVEGEGQHVFSNGDLSGNDHGLDPSVRGRKAAVIALPAAAPLSEGLILQSFADELAQLGYLGPYAPVDAGREGARLEHHHHHH”, “soluble”.
